Assay results as given in patent publication US20140134132A1.

Legend:
Assay in all cases: cell-based or functional assay
[1] = target: multidrug resistance associated protein 2 (human) (UniProt Q92887)
[2] = target: organic anion transporting polypeptide 1B1 (UniProt Q9Y6L6)
[3] = target: CYP3A4 (UniProt P08684)
Sequence of CYP3A4 (P08684 whole entry): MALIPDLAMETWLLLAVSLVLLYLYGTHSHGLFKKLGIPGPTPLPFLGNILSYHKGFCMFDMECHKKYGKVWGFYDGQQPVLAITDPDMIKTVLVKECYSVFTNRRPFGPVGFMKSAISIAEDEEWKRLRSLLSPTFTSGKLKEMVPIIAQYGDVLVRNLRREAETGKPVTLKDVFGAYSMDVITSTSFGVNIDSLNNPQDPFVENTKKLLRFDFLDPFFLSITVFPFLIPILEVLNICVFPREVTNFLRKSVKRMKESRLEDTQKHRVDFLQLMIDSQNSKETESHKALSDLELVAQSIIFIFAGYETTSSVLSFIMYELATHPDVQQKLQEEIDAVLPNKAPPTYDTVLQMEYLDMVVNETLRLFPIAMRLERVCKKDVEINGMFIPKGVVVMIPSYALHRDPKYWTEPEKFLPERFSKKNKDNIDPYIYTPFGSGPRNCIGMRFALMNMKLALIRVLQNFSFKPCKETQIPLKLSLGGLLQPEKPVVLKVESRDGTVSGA

Sequence of organic anion transporting polypeptide 1B1 (Q9Y6L6 whole entry): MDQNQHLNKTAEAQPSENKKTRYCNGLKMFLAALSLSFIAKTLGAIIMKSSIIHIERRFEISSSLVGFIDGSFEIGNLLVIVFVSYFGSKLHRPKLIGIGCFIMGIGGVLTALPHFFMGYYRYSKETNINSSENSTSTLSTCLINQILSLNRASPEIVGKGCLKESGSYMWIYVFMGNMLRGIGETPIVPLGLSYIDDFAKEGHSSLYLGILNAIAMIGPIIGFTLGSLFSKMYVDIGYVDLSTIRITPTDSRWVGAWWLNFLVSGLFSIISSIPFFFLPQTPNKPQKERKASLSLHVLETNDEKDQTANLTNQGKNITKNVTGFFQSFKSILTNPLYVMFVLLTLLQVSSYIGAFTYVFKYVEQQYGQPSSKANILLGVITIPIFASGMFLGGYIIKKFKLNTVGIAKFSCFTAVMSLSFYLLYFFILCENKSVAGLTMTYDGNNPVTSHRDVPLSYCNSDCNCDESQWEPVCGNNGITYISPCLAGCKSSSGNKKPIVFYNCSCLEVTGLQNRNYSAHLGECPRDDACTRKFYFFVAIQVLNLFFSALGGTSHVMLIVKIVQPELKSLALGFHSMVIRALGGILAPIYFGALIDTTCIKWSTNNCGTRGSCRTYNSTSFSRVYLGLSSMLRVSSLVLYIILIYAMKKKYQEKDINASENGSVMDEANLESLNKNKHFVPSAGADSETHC
Sequence of multidrug resistance associated protein 2 (human) (Q92887 whole entry): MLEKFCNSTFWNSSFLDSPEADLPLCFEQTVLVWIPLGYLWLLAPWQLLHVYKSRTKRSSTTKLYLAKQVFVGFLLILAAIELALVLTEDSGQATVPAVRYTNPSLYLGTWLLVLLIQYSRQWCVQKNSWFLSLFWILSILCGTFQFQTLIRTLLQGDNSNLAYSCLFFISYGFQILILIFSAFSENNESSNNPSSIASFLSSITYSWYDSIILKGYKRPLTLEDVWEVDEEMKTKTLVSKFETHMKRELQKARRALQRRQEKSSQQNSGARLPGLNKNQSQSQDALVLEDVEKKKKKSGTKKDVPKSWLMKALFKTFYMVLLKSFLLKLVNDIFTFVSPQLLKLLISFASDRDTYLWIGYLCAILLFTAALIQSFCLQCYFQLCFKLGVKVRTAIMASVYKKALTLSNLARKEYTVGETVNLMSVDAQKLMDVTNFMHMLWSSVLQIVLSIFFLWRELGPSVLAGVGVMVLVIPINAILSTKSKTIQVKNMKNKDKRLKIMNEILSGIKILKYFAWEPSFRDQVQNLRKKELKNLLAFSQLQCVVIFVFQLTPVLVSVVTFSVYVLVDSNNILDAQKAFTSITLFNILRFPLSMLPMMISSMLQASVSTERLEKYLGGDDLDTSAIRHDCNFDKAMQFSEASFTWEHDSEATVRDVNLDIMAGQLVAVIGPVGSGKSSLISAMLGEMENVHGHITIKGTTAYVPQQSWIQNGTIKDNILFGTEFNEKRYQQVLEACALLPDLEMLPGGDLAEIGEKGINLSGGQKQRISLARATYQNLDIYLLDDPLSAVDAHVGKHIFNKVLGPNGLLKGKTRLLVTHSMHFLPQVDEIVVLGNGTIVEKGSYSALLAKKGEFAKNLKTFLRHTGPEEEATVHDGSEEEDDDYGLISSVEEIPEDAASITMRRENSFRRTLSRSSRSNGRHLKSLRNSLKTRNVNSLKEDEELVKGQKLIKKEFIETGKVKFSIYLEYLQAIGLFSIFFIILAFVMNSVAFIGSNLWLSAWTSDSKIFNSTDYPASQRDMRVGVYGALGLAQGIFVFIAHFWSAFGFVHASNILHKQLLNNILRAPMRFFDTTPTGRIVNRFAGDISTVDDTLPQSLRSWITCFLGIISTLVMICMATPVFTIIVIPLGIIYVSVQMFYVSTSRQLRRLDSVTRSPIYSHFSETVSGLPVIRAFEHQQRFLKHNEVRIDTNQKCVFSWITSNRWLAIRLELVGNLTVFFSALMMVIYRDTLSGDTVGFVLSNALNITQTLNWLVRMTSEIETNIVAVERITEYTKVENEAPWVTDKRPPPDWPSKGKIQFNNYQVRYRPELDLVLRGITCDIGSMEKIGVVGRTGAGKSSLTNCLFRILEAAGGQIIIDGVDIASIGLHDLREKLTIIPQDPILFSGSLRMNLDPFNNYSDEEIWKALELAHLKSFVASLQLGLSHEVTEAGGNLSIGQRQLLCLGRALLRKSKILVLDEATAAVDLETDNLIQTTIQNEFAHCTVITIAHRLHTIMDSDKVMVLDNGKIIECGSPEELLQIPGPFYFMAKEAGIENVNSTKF

3-[D-Ala]-4-[(2S,3S)-3-methyl-2-(methylamino)-4-(methylsulfonyl)butanoyl]-cyclosporin (peptide)
MRP2 IC50 [1]: 9 µM
OATP1B13 IC50 [2]: 1.4 µM

3-[D-Ala]-4-[(2S,3S)-4-(2-(4-cyclobutylpiperazin-1-yl)ethoxy)-3-methyl-2-(methylamino)butanoyl]-cyclosporin (peptide)
NIM TDI kinact/Ki [3]: 0.0007
OATP1B13 IC50 [2]: 3.5 µM

3-[D-Ala]-4-[(2S,3R)-3-methyl-2-(methylamino)-4-morpholinobutanoyl]-cyclosporin (peptide)
MRP2 IC50 [1]: 18 µM
OATP1B13 IC50 [2]: 8.2 µM

3-[D-Ala]-4-[(2S,3R)-5-methoxy-3-methyl-2-(methylamino)pentanoyl]-cyclosporin (peptide)
MRP2 IC50 [1]: 13 µM
OATP1B13 IC50 [2]: 2.3 µM

3-[D-Ala]-4-[(2S,3R)-3-methyl-2-(methylamino)-4-(4-(methylsulfonyl)piperazin-1-yl)butanoyl]-cyclosporin (peptide)
MRP2 IC50 [1]: 13 µM
OATP1B13 IC50 [2]: 4.8 µM

3-[D-Ala]-4-[(2S,3S)-3-methyl-2-(methylamino)-4-(2-((4-methylpiperazine-1-carbonyl)oxy)ethoxy)butanoyl]-cyclosporin (peptide)
MRP2 IC50 [1]: 30 µM
OATP1B13 IC50 [2]: 8.7 µM

3-[D-Ala]-4-[(2S,3R)-3-methyl-2-(methylamino)-6-morpholinohexanoyl]-cyclosporin (peptide)
NIM TDI kinact/Ki [3]: 0.001
OATP1B13 IC50 [2]: 6.9 µM

3-[D-Ala]-4-[(2S,3S)-4-methoxy-3-methyl-2-(methylamino)butanoyl]-cyclosporin (peptide)
MRP2 IC50 [1]: 14 µM
OATP1B13 IC50 [2]: 5.1 µM

3-[D-Ala]-4-[(2S,3S)-3-methyl-2-(methylamino)-4-((4-methylpiperazine-1-carbonyl)oxy)butanoyl]-cyclosporin (peptide)
MRP2 IC50 [1]: 21 µM
OATP1B13 IC50 [2]: 6.7 µM

3-[D-Ala]-4-[(2S,3S)-4-(((S)-4-ethylmorpholin-2-yl)methoxy)-3-methyl-2-(methylamino)butanoyl]-cyclosporin (peptide)
NIM TDI kinact/Ki [3]: 0.0004
OATP1B13 IC50 [2]: 1.9 µM

3-[D-Ala]-4-[(2S,3R)-3-methyl-6-((methyl(1-methylpiperidin-4-yl)carbamoyl)oxy)-2-(methylamino)hexanoyl]-cyclosporin (peptide)
OATP1B13 IC50 [2]: 3.7 µM

3-[D-Ala]-4[(2S,3R)-2-Amino-4-(4-isopropyl-piperazin-1-yl)-butanoyl]-cyclosporin (peptide)
OATP1B13 IC50 [2]: 2.44 µM

3-[D-Ala]-4[(2S,3S)-2-Amino-3-methyl-4-morpholin-4-yl-butanoyl]-cyclosporin (peptide)
OATP1B13 IC50 [2]: 3.6 µM

3-[D-Ala]-4-[(2S,3R)-3-methyl-2-(methylamino)-5-(piperidin-1-yl)pentanoyl]-cyclosporin (peptide)
OATP1B13 IC50 [2]: 2.3 µM

3-[D-Ala]-4-[(2S,3S)-4-hydroxy-3-methyl-2-(methylamino)butanoyl]-cyclosporin (peptide)
OATP1B13 IC50 [2]: 3.6 µM

3-[(R)-5-hydroxy-2-(methylamino)pentanoyl]-4-[(2S,3S)-3-methyl-2-(methylamino)-4-(methylsulfonyl)butanoyl]-cyclosporin (peptide)
OATP1B13 IC50 [2]: 2.7 µM

3-[D-Ala]-4-[(2S,3R)-4-cyano-3-methyl-2-(methylamino)butanoyl]-cyclosporin (peptide)
OATP1B13 IC50 [2]: 0.9 µM

3-[D-Ala]-4-[(2S,3R)-3-methyl-2-(methylamino)-5-((S)-2-methylpiperidin-1-yl)pentanoyl]-cyclosporin (peptide)
OATP1B13 IC50 [2]: 1.7 µM

3-[D-Ala]-4[(2S,3R)-2-Amino-4-(4-cyclobutyl-piperazin-1-yl)-butanoyl]-cyclosporin (peptide)
OATP1B13 IC50 [2]: 5.2 µM

3-[D-Ala]-4-[(2S,3S)-4-(2-((S)-3-methoxypyrrolidin-1-yl)ethoxy)-3-methyl-2-(methylamino)butanoyl]-cyclosporin (peptide)
OATP1B13 IC50 [2]: 5 µM

3-[D-Ala]-4-[(2S,3R)-3-methyl-2-(methylamino)-4-(3-(trifluoromethyl)-5,6-dihydro-[1,2,4]triazolo[4,3-a]pyrazin-7(8H)-yl)butanoyl]-cyclosporin (peptide)
OATP1B13 IC50 [2]: 1 µM

3-[D-Ala]-4-[(2S,3S)-3-methyl-4-(2-(methyl(2,2,2-trifluoroethyl)amino)ethoxy)-2-(methylamino)butanoyl]-cyclosporin (peptide)
OATP1B13 IC50 [2]: 1.9 µM

3-[D-Ala]-4-[(2S,3R)-6-(4-(2-methoxyethyl)piperazin-1-yl)-3-methyl-2-(methylamino)hexanoyl]-cyclosporin (peptide)
OATP1B13 IC50 [2]: 2.2 µM

3-[D-Ala]-4-[(2S,3R)-4-methoxy-3-methyl-2-(methylamino)butanoyl]-cyclosporin (peptide)
NIM TDI kinact/Ki [3]: 0.0003 µL/min/pmol
MRP2 IC50 [1]: 15 µM
OATP1B13 IC50 [2]: 1.9 µM

3-[D-Ala]-4[(2S,3R)-2-Amino-4-[4-(2-methoxy-ethyl)-piperazin-1-yl]-3-methyl-butanoyl]-cyclosporin (peptide)
OATP1B13 IC50 [2]: 6.1 µM

3-[D-Ala]-4-[(2S,3S)-4-(2-hydroxy-2-methylpropoxy)-3-methyl-2-(methylamino)butanoyl]-cyclosporin (peptide)
NIM TDI kinact/Ki [3]: 0.0015
OATP1B13 IC50 [2]: 1.8 µM

3-[D-Ala]-4-[(2S,3R)-4-((2-(dimethylamino)-2-oxoethyl)(methyl)amino)-3-methyl-2-(methylamino)butanoyl]-cyclosporin (peptide)
OATP1B13 IC50 [2]: 2.7 µM

3-[D-Ala]-4-[(2S,3R)-3-methyl-2-(methylamino)-6-(((1-methylpiperidin-4-yl)carbamoyl)oxy)hexanoyl]-cyclosporin (peptide)
OATP1B13 IC50 [2]: 7.8 µM

3-[D-Ala]-4-[(2S,3R)-4-((2S,5S)-2,5-dimethylmorpholino)-3-methyl-2-(methylamino)butanoyl]-cyclosporin (peptide)
OATP1B13 IC50 [2]: 2.6 µM

3-[D-Ala]-4-[(S)-4-methoxy-3-(methoxymethyl)-2-(methylamino)butanoyl]-cyclosporin (peptide)
OATP1B13 IC50 [2]: 2.6 µM

3-[D-Ala]-4-[(2S,3R)-3-methyl-2-(methylamino)-4-(2-oxa-6-azaspiro[3.4]octan-6-yl)butanoyl]-cyclosporin (peptide)
OATP1B13 IC50 [2]: 2 µM

3-[D-Ala]-4[(2S,3S)-2-Amino-4-(4-ethyl-piperazin-1-yl)-3-methyl-butanoyl]-cyclosporin (peptide)
OATP1B13 IC50 [2]: 5.1 µM

3-[D-Ala]-4-[(2S,3R)-3-methyl-2-(methylamino)-5-((S)-3-oxotetrahydro-1H-oxazolo[3,4-a]pyrazin-7(3H)-yl)pentanoyl]-cyclosporin (peptide)
OATP1B13 IC50 [2]: 2.8 µM

3-[D-Ala]-4-[(2S,3R)-3,6-dimethyl-2-(methylamino)-6-((4-methylpiperazine-1-carbonyl)oxy)heptanoyl]-cyclosporin (peptide)
OATP1B13 IC50 [2]: 4.7 µM

3-[D-Ala]-4-[(2S,3S)-4-(((S)-4-isopropylmorpholin-2-yl)methoxy)-3-methyl-2-(methylamino)butanoyl]-cyclosporin (peptide)
OATP1B13 IC50 [2]: 4.3 µM

3-[D-Ala]-4-[(2S,3R)-5-(4-cyanopiperidin-1-yl)-3-methyl-2-(methylamino)pentanoyl]-cyclosporin (peptide)
OATP1B13 IC50 [2]: 2.4 µM

3-[D-Ala]-4-[(2S,3R)-3-methyl-2-(methylamino)-4-(4-methylpiperazin-1-yl)butanoyl]-cyclosporin (peptide)
OATP1B13 IC50 [2]: 7.9 µM

3-[D-Ala]-4-[(2S,3R)-3-methyl-2-(methylamino)-4-(3-oxopiperazin-1-yl)butanoyl]-cyclosporin (peptide)
OATP1B13 IC50 [2]: 2.1 µM

3-[D-Ala]-4-[(2S,3R)-3-methyl-2-(methylamino)-4-(1,4-oxazepan-4-yl)butanoyl]-cyclosporin (peptide)
OATP1B13 IC50 [2]: 1.7 µM

3-[D-Ala]-4-[(2S,3R)-3-methyl-2-(methylamino)-4-(1,4-dioxa-8-azaspiro[4.5]decan-8-yl)butanoyl]-cyclosporin (peptide)
OATP1B13 IC50 [2]: 2.1 µM

3-[D-Ala]-4[(2S,3R)-2-Amino-4-(4-ethyl-piperazin-1-yl)-butanoyl]-cyclosporin (peptide)
OATP1B13 IC50 [2]: 4.56 µM

3-[D-Ala]-4-[(2S,3S)-3-methyl-2-(methylamino)-4-(2-oxo-2-(piperazin-1-yl)ethoxy)butanoyl]-cyclosporin (peptide)
OATP1B13 IC50 [2]: 6.9 µM

3-[D-Ala]-4[(2S,3S)-3-methyl-2-(methylamino)-4-(4-(methylsulfonyl)piperazin-1-yl)butanoyl]-cyclosporin (peptide)
OATP1B13 IC50 [2]: 0.4 µM

3-[D-Ala]-4-[(2S,3S)-3-methyl-2-(methylamino)-4-(2-((S)-3-methylmorpholino)ethoxy)butanoyl]-cyclosporin (peptide)
OATP1B13 IC50 [2]: 4.8 µM

3-[D-Ala]-4-[(2S,3S)-3-methyl-2-(methylamino)-4-(2-morpholinoethoxy)butanoyl]-cyclosporin (peptide)
MRP2 IC50 [1]: 23 µM
OATP1B13 IC50 [2]: 7.6 µM

3-[D-Ala]-4-[(2S,3S)-4-(2-(1,1-dioxidothiomorpholino)ethoxy)-3-methyl-2-(methylamino)butanoyl]-cyclosporin (peptide)
MRP2 IC50 [1]: 28 µM
OATP1B13 IC50 [2]: 3 µM

3-[D-Ala]-4-[(2S,3R)-3-methoxy-2-(methylamino)-4-morpholinobutanoyl]-cyclosporin (peptide)
OATP1B13 IC50 [2]: 0.9 µM
